B1: ZMYND11 (parent)
chain: YCSIKCQQEHWHAEHKRTCRRKR
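Note: lentivirally expressed fusions sorted by FACS into six bins by GFP to DsRed ratio, PSI derived from sequencing read proportions per bin multiplied by bin number.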

Variants of: B1
Assay: protein stability index of a GFP-peptide fusion (GPS, HEK-293T) (PSI 1-6); higher = more stable
Conditions: c terminus: native
Work on YCSIKCQQEHWHAEHKRTCRRRR yielded a protein stability index of 1.79.
For YCSIKCQQEHWHAEHKRTCRRSR, the protein stability index was 3.04.
Variant YCSIKCQQEHWHAEHKRTCRRNR has a protein stability index of 1.37.
With YCSIKCQQEHWHAEHKRTCRRPR the protein stability index was 1.94.
YCSIKCQQEHWHAEHKRTCRRLR showed a protein stability index of 2.02.
For YCSIKCQQEHWHAEHKRTCRRTR, the protein stability index was 1.91.
YCSIKCQQEHWHAEHKRTCRRVR showed a protein stability index of 2.15.
With YCSIKCQQEHWHAEHKRTCRRMR the protein stability index was 1.55.
For YCSIKCQQEHWHAEHKRTCRRQR, the protein stability index was 2.64.
For YCSIKCQQEHWHAEHKRTCRRWR, the protein stability index was 2.97.
In the case of YCSIKCQQEHWHAEHKRTCRRYR, the protein stability index is reported as 1.53.
With YCSIKCQQEHWHAEHKRTCRRKN the protein stability index was 2.09.
For YCSIKCQQEHWHAEHKRTCRRKQ, the protein stability index was 3.2.
YCSIKCQQEHWHAEHKRTCRRKG showed a protein stability index of 5.07.
YCSIKCQQEHWHAEHKRTCRRKS showed a protein stability index of 2.64.
Variant YCSIKCQQEHWHAEHKRTCRRKV has a protein stability index of 1.26.
YCSIKCQQEHWHAEHKRTCRRKC showed a protein stability index of 2.04.
In the case of YCSIKCQQEHWHAEHKRTCRRKK, the protein stability index is reported as 2.11.
Work on YCSIKCQQEHWHAEHKRTCRRKY yielded a protein stability index of 1.41.
Variant YCSIKCQQEHWHAEHKRTCRRKW has a protein stability index of 4.23.
YCSIKCQQEHWHAEHKRTCRRKM showed a protein stability index of 2.15.
Work on YCSIKCQQEHWHAEHKRTCRRKE yielded a protein stability index of 2.77.
Variant YCSIKCQQEHWHAEHKRTCRRKA has a protein stability index of 2.28.
Variant YCSIKCQQEHWHAEHKRTCRRKD has a protein stability index of 1.86.
With YCSIKCQQEHWHAEHKRTCRRKL the protein stability index was 2.2.
YCSIKCQQEHWHAEHKRTCRRKT gave a protein stability index of 2.26.
For YCSIKCQQEHWHAEHKRTCRRKH, the protein stability index was 2.26.
With YCSIKCQQEHWHAEHKRTCRRKP the protein stability index was 3.21.
For YCSIKCQQEHWHAEHKRTCRRKF, the protein stability index was 1.58.

Source: the supplement of paper PMC10567573
